{"source": "patent US6506874", "binders": {"B1": {"name": "IGF-I P28A (on G1S-A70V) displayed on phage (ligand, not shown: large carriers; small tags and cut ends)", "chain": "SPETLCGAELVDALQFVCGDRGFYFNKATGYGSSSRRAPQTGIVDECCFRSCDLRRLEMYCAPLKPAKSV"}, "B2": {"name": "IGF-I S34A (on G1S-A70V) displayed on phage (ligand, not shown: large carriers)", "chain": "B1 chain with A28P, S34A"}, "B3": {"name": "IGF-I G30A (on G1S-A70V) displayed on phage (ligand, not shown: large carriers)", "chain": "B1 chain with A28P, G30A"}, "B4": {"name": "IGF-I P2A (on G1S-A70V) displayed on phage (ligand)", "chain": "B1 chain with P2A, A28P", "notes": "not shown: M13 gene III fragment (residues 249-406) used as phage-display carrier, and its junction to IGF-I"}, "B5": {"name": "IGF-I Y31A (on G1S-A70V) displayed on phage (ligand, not shown: large carriers)", "chain": "B1 chain with A28P, Y31A"}, "B6": {"name": "IGF-I T29A (on G1S-A70V) displayed on phage (ligand, not shown: large carriers)", "chain": "B1 chain with A28P, T29A"}, "B7": {"name": "IGF-I E9A (on G1S-A70V) displayed on phage (ligand, not shown: large carriers)", "chain": "B1 chain with E9A, A28P", "modifications": "disulfide (positions not given here); not fully specified; also: displayed on M13 phage as gene III fusion"}, "B8": {"name": "IGF-I G32A (on G1S-A70V) displayed on phage (ligand, not shown: large carriers)", "chain": "B1 chain with A28P, G32A"}, "B9": {"name": "IGF-I S33A (on G1S-A70V) displayed on phage (ligand, not shown: large carriers)", "chain": "B1 chain with A28P, S33A"}, "B10": {"name": "IGF-I G7A (on G1S-A70V) displayed on phage (ligand, not shown: large carriers)", "chain": "B1 chain with G7A, A28P", "modifications": "disulfide (positions not given here); not fully specified; also: displayed on M13 phage as gene III fusion"}, "B11": {"name": "IGF-I D12A (on G1S-A70V) displayed on phage (ligand)", "chain": "B1 chain with D12A, A28P", "notes": "not shown: Display partner: M13 gene III protein fragment (residues 249-406) and the junction to it"}, "B12": {"name": "IGF-I D45A (on G1S-A70V) displayed on phage (ligand)", "chain": "B1 chain with A28P, D45A", "notes": "as for B4"}}, "note": "Where a chain is given by its changes, count along the chain named. Names and notes keep the numbering of the source.", "data": [{"biological_target": "T1, human IGFBP-1 (human, UniProt P08833 26-259)", "T1 construct": "Secreted recombinant protein", "T1 sequence (looked up)": "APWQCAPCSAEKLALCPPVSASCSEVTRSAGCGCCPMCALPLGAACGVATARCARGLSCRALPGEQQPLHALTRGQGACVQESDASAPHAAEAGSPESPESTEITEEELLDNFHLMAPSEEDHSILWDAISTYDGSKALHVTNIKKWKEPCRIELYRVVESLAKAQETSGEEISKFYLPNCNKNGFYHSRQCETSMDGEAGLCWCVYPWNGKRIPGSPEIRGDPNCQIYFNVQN", "assay": "competitive phage ELISA, soluble IGFBP-1", "description": "(§1) Phage particles were harvested and resuspended in PBS buffer as described in Lowman, H. B., \"Phage Display of Peptide Libraries on Protein Scaffolds,\" in Cabilly, S. (ed.), *Combinatorial Peptide Library Protocols* (Humana Press Inc.: Totowa, N.J., 1998), pp. 249–264. Then phage concentrations were normalized to yield a maximal ELISA signal of 0.2–0.4 for each mutant (Lowman, in Cabilly, S. (ed.), supra). Threefold serial dilutions of soluble competitor were prepared on non-absorbent microtiter plates (Nunc, F, 96 wells) with binding buffer (0.5% TWEEN™ 20/PBS) containing phage at the previously-determined concentrations. The dilution range of competitor protein extended over six orders of magnitude, starting at 5 μM for IGFBP-1 and 500 nM for IGFBP-3. After blocking, the plates containing immobilized target were washed with 0.05% TWEEN™ PBS buffer and subsequently incubated with 80 μl/well of the premixed phage-competitor solutions for 1 hour at room temperature. […] Numbers in Table I represent mean ±standard deviation of individually assessed $IC50$ values.\n(§2) At least two different clones of every mutant were tested.", "units": {"IC50": "nM"}, "values": [{"binder": "B1", "IC50": 9.3}, {"binder": "B2", "IC50": 9.5}, {"binder": "B3", "IC50": 7.1}, {"binder": "B4", "IC50": 11}, {"binder": "B5", "IC50": 6.8}, {"binder": "B6", "IC50": 7.3}, {"binder": "B7", "IC50": 8.6}, {"binder": "B8", "IC50": 10.9}, {"binder": "B9", "IC50": 9.1}]}, {"biological_target": "T2, recombinant human IGFBP-3 (human, UniProt P17936 28-291)", "T2 construct": "Secreted recombinant protein", "T2 sequence (P17936 28-291 limits assumed)": "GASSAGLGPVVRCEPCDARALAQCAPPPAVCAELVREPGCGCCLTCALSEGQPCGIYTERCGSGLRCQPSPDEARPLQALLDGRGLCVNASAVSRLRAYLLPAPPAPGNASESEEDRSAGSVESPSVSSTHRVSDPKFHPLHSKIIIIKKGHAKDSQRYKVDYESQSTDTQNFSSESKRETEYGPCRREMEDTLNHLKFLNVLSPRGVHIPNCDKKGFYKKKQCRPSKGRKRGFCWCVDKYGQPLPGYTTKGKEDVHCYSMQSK", "assay": "competitive phage ELISA, soluble IGFBP-3", "description": "as §1, §2", "units": {"IC50": "nM"}, "values": [{"binder": "B1", "IC50": 1.41}, {"binder": "B2", "IC50": 1.65}, {"binder": "B3", "IC50": 0.58}, {"binder": "B4", "IC50": 0.81}, {"binder": "B5", "IC50": 0.73}, {"binder": "B6", "IC50": 1.23}, {"binder": "B7", "IC50": 1.32}, {"binder": "B8", "IC50": 0.76}, {"binder": "B9", "IC50": 1.01}, {"binder": "B10", "IC50": 4.58}]}, {"biological_target": "T1, human IGFBP-1", "assay": "competitive phage ELISA", "description": "as §1, §2", "units": {"fold increase in binding": "fold"}, "values": [{"binder": "B11", "fold increase in binding": "~2"}, {"binder": "B12", "fold increase in binding": "~2"}]}]}
